Measurements taken from the DeepSol protein solubility set.

Test: soluble on expression in E. coli; label from the status in PepcDB or PDB records
With “MGSDKIHHHHHHGREEKTVYDFPLEQSLKSDKEVSLNKELLAPYLMCSYDSTLCLIDWTANPMVHVYNMNTGKEMVAFGNKGMGPDDFLSISQMYVDMGKRSLLLYDQSLQTISSFQIDSLAQGSLSKIDCVSAPKLGMNRVYAYSDSIFYGSGTFESGLIAKCNQKEILNQYLPFPHTEQAVNRDVNYLLFQGDLIMKPDKKRFAYLAYECDLLSIQKVVNDTCLESVVHLNTYTPVFENQSTNEVSSVNVSTDSPKGFLRGVATENYVYALYSGQIGKNKAIANEVYVFDWEGRAVKKVILDRWGICISVDSNDERLCLMTKETDGGEERYHYYCYQLN” the “soluble on expression in E. coli” value was “not soluble”. In the case of “MGSDKIHHHHHHHKKTFDYIFNKTEAITLEQSKLTLSKDITVLSFSDSSMVDRNSSIIKVDSGWIVYSKNSESSILSFTSDGQFSGYIGHRGNGPGEYTSVYDVVVNQKSKVLEVLSDGGIFCYTFGGDFLDKKEVTYPAFSFAIDDRQNYWFYVGNNTTYGDAKMICTDENIANVAYYLHQKSNMLPMVENNFGRNGEWLTFHESLNHDLYTIENGKLDLSYAMDFPNYKLPKKLHELSGMEVIEELQRSNYASIINYLENHDYIFLNVLLNNEGERIPEVYYWIISKNLQEEVIIKIDGGISAESYLFNTQYLSNDNKLYCLGYIWENKDVESFEENLNPSVVALEFNELFSKVR”, the “soluble on expression in E. coli” value is reported as “not soluble”. In the case of “MGSDKIHHHHHHHPCARLSVRMSSTGIDRKGVLANRVAVVTGSTSGIGFAIARRLARDGAHVVISSRKQQNVDRAMAKLQGEGLSVAGIVCHVGKAEDREQLVAKALEHCGGVDFLVCSAGVNPLVGSTLGTSEQIWDKILSVNVKSPALLLSQLLPYMENRRGAVILVSSIAAYNPVVALGVYNVSKTALLGLTRTLALELAPKDIRVNCVVPGIIKTDFSKVFHGNESLWKNFKEHHQLQRIGESEDCAGIVSFLCSPDASYVNGENI”, the “soluble on expression in E. coli” value is reported as “not soluble”. For “MGSDKIHHHHHHKNTDLVAEDSICFPIDEHTYYASKSIFQFEENGHEYLSFLDAEYSQKINIYDIKNQKLIKTILLQKEGPNGMNVLSGCHPLNLNHFIITSWNGTFSLVNDKGEIEKKFDFWEKGVNFQEFDHISFSSYSYKPAIIKDSILYFSQSFLKHPRKKSDWNKIPMFAFANLNTGKTGWSELRYPLIFNKDEDFKNVKLYDPEICYTYTGKDVVISLGQYDSIMVSSDFKHKISYNAKSRYLAHAYPHLQDGQIDLFKNIQIQGKLPHYSHLMYDKYRKVFYRFALMPDDNIKPFSNNPHQSFSIIILNKDYEIIGETKFPGNTYTHHLCFVGKKGLYISENNENNPQFDENKLVFRCFTLQDRKK”, the “soluble on expression in E. coli” value was “not soluble”. In the case of “MGSDKIHHHHHHKQEPISKSGVPVINLSEDVSTVPSLLLSEAAEKLEIVPLEMTDESVLSDITEMQVTDHNIWIDHGREFYIYRFSRTGKFLNKIGSIGQGPGEYTTYSTFLVDEDKKEVYIIANTNGVLAYDFEGNFKRKIIDIQMILQLFSSPYDQYILNNQKFFATQNFGLYRPIDKDSLWSFVSLGDDFQKKKYFKNPAHVGREEQIIANRANMDRMVNYWREYLTSMDTYNAQLTLKYPDTDTIYCYDDATNQLSPQYAIFTDEEKGDYEATHLWFKDRKAFDYFSIFSYYPTKDFIYLVGSKGEEVYTYCYNKKDGSVRLQKRQSTITERDVPWFSFPLRQMKRDFVLDNDLGGGDFTVDSRSSGKYWIDILEPGGDENWIDIDQIKSSTVIDESKKKELIRVLESATEDSNPILMIATLK”, the “soluble on expression in E. coli” value is reported as “not soluble”. For “MGSDKIHHHHHHKTRTVFVCQQCGAQQSRWMGKCPECGAWDSLVEQIVTPARGTGGQRAATVGQNQPIRLRDVPLTDFQRLPVYAEEFARVLGGGLVPGSVVLIGGDPGVGKSTLLGQVAAHFAASVGPALYVSAEESAQQIRLRAERLGLTADDLFLLAETSLDLIIEHIRHLRPRLVIVDSIQTVYLPELTSAAGSVSQVREGALRLMQLAKETAIPIVLVGHVTKEGAIAGPRVLEHIVDVVLYLEGDRFHQFRLLRGGKNRFGSTNEVGVFEMTGDGLREVRNPSQVFLAERNTQSPGSTVTVTLEGTRPLLVEVQALTSHTGNAQPRRTTNGFDLNRLLMLTAVLSKRVGLPLFNQDLYVNIVGGLRIGEPAADLAVALAIASSYRNQRIASRSGLPW”, the “soluble on expression in E. coli” value was “not soluble”. With “MGSDKIHHHHHHKTTTAVQLADTFAFMRQKKVLVLDLDPQTNATLALVGEERWEQADERGQTLAHLFLDLLNGTRNFNPERAIVRGASNLNTIPPEVFDQLPESAQYGRVDVLPSSIRLIDVQDRMQDIANRTNYSLSPMAVVQKYIGPLFGRYDYVLIDCPPNLGFITQNGLEVSDHYLIPTIPDRMSTYGIPQIAGKIDELRRDRDLKIRCLGVVVTKFQSNSSQHKQGLEHLPEYLRSAFAYTNEDTPPILNTVMPQTNASAEAMLFERDVRNYPVKYGSGAVAGQAAYKYGLDLAAEVQALLGDEDEA” the “soluble on expression in E. coli” value was “not soluble”.
